Read-outs that look alike come from different tables or passages of the source.
Tests used:
[1] = biological target: T1, Human CD3ε stalk-Fc(knob)-Avi/CD3δ stalk-Fc(hole) (human); assay: SPR on immobilized human CD3ε/δ after stress, relative to sample kept at -80°C pH 6
T1 construct: Heterodimer of CD3 delta and CD3 epsilon ectodomains fused to human Fc with knob-into-hole; also called human CD3ε/δ; CD3 antigen
Method: (§1) In order to assess the effect of the deamidation site removal and its effect on the stability of the antibodies, the optimized anti-CD3 antibodies (in TCB format) were incubated for 14 days at 37° C., pH 7.4 and at 40° C., pH 6 and further analyzed by SPR for their binding capability to human CD3ε/δ. Samples stored at −80° C. pH 6 were used as reference. The reference samples and the samples stressed at 40° C. were in 20 mM His, 140 mM NaCl, pH 6.0, and the samples stressed at 37° C. in PBS, pH 7.4, all at a concentration of 1.0 mg/ml. After the stress period (14 days) samples in PBS were dialyzed back to 20 mM His, 140 mM NaCl, pH 6.0 for further analysis.
(§2) All SPR experiments were performed on a Biacore T200 instrument (GE Healthcare) at 25° C. with HBS-P+ (10 mM HEPES, 150 mM NaCl pH 7.4, 0.05% Surfactant P20) as running and dilution buffer. Biotinylated human CD3ε/δ (see Example 3, SEQ ID NOs 41 and 42) as well as biotinylated anti-huIgG (Capture Select, Thermo Scientific, #7103262100) were immobilized on a Series S Sensor Chip SA (GE Healthcare, #29104992), resulting in surface densities of at least 1000 resonance units (RU). Anti-CD3 antibodies with a concentration of 2 μg/ml were injected for 30 s at a flow rate of 5 μl/min, and dissociation was monitored for 120 s. The surface was regenerated by injecting 10 mM glycine pH 1.5 for 60 s. Bulk refractive index differences were corrected by subtracting blank injections and by subtracting the response obtained from a blank control flow cell. For evaluation, the binding response 5 seconds after injection end was taken. To normalize the binding signal, the CD3 binding was divided by the anti-huIgG response (the signal (RU) obtained upon capture of the CD3 antibody on the immobilized anti-huIgG antibody). The relative binding activity was calculated by referencing each temperature stressed sample to the corresponding, non-stressed sample.
The experiment was performed as described in Example 4, using the TCB molecules prepared in Example 7.

[2] = biological target: human CD3 on cells (CD3ε) (human, UniProt P07766 23-207); assay: cell-based or functional assay
[3] = biological target: T1, Human CD3ε stalk-Fc(knob)-Avi/CD3δ …; assay: SPR, TCB captured by anti-PG antibody, antigen as analyte, 25°C
Excerpt: (§3) For affinity measurements, TCB molecules were captured on a C1 sensorchip (GE Healthcare) surface with immobilized anti-Fc(P329G) IgG (an antibody that specifically binds human IgG₁ Fc(P329G); “anti-PG antibody”—see WO 2017/072210, incorporated herein by reference). The experimental setup is schematically depicted in FIG. 3. Capture IgG was coupled to the sensorchip surface by direct immobilization of around 400 resonance units (RU) using the standard amine coupling kit (GE Healthcare Life Sciences).
(§4) Kinetic constants were derived using the Biacore T200 Evaluation Software (GE Healthcare Life Sciences), to fit rate equations for 1:1 Langmuir binding by numerical integration. The half-life (t_{1/2}) of the interaction was calculated using the formula t_{1/2}=ln2/koff.
(§5) To analyze the interaction to CD3, TCB molecules were captured for 240 s at 25 nM with a flow rate of 10 μl/min. Human and cynomolgus CD3F stalk-Fc(knob)-Avi/CD36-stalk-Fc(hole) were passed at a concentration of 0.14-100 nM with a flow rate of […] through the flow cells for 240 s. The dissociation was monitored for 800 s.

[4] = biological target: T2, Cynomolgus CD3ε stalk-Fc(knob)-Avi/CD3δ stalk-Fc(hole) (cynomolgus); assay: as above
T2 construct: also called cynomolgus CD3ε/δ
Excerpt: as §3, §4, §5

[5] = biological target: T1, Human CD3ε stalk-Fc(knob)-Avi/CD3δ …; assay: as above; remark: listed apart in the source
Excerpt: as §3
(§6) To analyze the interaction to CD3, TCB molecules were captured for 80 s at 25 nM with a flow rate of 10 μl/min. […] The dissociation was monitored for 800 s.
as §4

[6] = biological target: T2, Cynomolgus CD3ε stalk-Fc(knob)-Avi/CD3δ …; assay: as above; remark: listed apart in the source
Excerpt: as §3, §6, §4

[7] = biological target: T1, Human CD3ε stalk-Fc(knob)-Avi/CD3δ …; assay: SPR on immobilized human CD3ε/δ after stress, relative to sample kept at -80°C pH 6; remark: listed apart in the source
Method: as §1, §2

Chain of human CD3 on cells (CD3ε) (P07766 23-207 limits assumed): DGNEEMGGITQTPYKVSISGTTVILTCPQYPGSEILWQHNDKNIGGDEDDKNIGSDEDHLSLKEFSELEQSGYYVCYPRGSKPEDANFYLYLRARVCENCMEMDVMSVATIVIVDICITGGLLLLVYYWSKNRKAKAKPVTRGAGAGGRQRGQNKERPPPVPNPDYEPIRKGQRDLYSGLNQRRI

| Binder | binding activity [%] after 2 weeks at pH 6.0/40°C [1] | binding activity [%] after 2 weeks at pH 7.4/37°C [1] | EC50 24 h (pM), T-cell mediated lysis of CEACAM5-expressing LS180 tumor cells [2] | EC50 48 h (pM), T-cell mediated lysis of CEACAM5-expressing LS180 tumor cells [2] | Kd [3] | koff [3] | kon [3] | t1/2 [3] | other results |
| --- | --- | --- | --- | --- | --- | --- | --- | --- | --- |
| CEACAM5-TCB, CEACAM5 CD3 variant P035.093 (bispecific antibody, human IgG1, kappa, L234A L235A, 2+1 IgG CrossFab, inverted; human IgG1 Fc, knob-into-hole, PGLALA; also called P035.093 in CEACAM5-TCB format) heavy 1: not shown heavy 2: QVQLVQSGAEVKKPGSSVKVSCKASGFNIKDTYMHWVRQAPGQGLEWMGRIDPANGNSKYVPKFQGRVTITADTSTSTAYMELSSLRSEDTAVYYCAPFGYYVSDYAMAYWGQGTLVTVSSASTKGPSVFPLAPSSKSTSGGTAALGCLVEDYFPEPVTVSWNSGALTSGVHTFPAVLQSSGLYSLSSVVTVPSSSLGTQTYICNVNHKPSNTKVDEKVEPKSCDKTHTCPPCPAPEAAGGPSVFLFPPKPKDTLMISRTPEVTCVVVDVSHEDPEVKFNWYVDGVEVHNAKTKPREEQYNSTYRVVSVLTVLHQDWLNGKEYKCKVSNKALGAPIEKTISKAKGQPREPQVCTLPPSRDELTKNQVSLSCAVKGFYPSDIAVEWESNGQPENNYKTTPPVLDSDGSFFLVSKLTVDKSRWQQGNVFSCSVMHEALHNHYTQKSLSLSP light 1: EIVLTQSPATLSLSPGERATLSCRAGESVDIFGVGFLHWYQQKPGQAPRLLIYRASNRATGIPARFSGSGSGTDFTLTISSLEPEDFAVYYCQQTNEDPYTFGQGTKLEIKRTVAAPSVFIFPPSDRKLKSGTASVVCLLNNFYPREAKVQWKVDNALQSGNSQESVTEQDSKDSTYSLSSTLTLSKADYEKHKVYACEVTHQGLSSPVTKSFNRGEC light 2: EVQLLESGGGLVQPGGSLRLSCAASGFTFSSYAMNWVRQAPGKGLEWVSRIRSKYNNYATYYADSVKGRFTISRDDSKNTLYLQMNSLRAEDTAVYYCVRASNFPASYVSYFAYWGQGTLVTVSSASVAAPSVFIFPPSDEQLKSGTASVVCLLNNFYPREAKVQWKVDNALQSGNSQESVTEQDSKDSTYSLSSTLTLSKADYEKHKVYACEVTHQGLSSPVTKSFNRGEC | 100% | 97% | 22 pM | 14.2 pM | 0.384 nM | 0.00111 s⁻¹ | 2.93e+06 M⁻¹ s⁻¹ | 10.4 min | Kd [4]: 0.201 nM; koff [4]: 0.000765 s⁻¹; kon [4]: 3.8e+06 M⁻¹ s⁻¹; t1/2 [4]: 15.1 min |
| TYRP1-TCB with anti-CD3 antibody clone P035.093 (bispecific antibody, human IgG1, kappa, L234A L235A, human IgG1 Fc, knob-into-hole, P329G L234A L235A; also called P035.093 in TCB format) heavy 1: not shown heavy 2: QVQLVQSGAEVKKPGASVKVSCKASGFNIKDYFLHWVRQAPGQGLEWMGWINPDNGNTVYAQKFQGRVTMTADTSTSTVYMELSSLRSEDTAVYYCTRRDYTYEKAALDYWGQGTLVTVSSASTKGPSVFPLAPSSKSTSGGTAALGCLVEDYFPEPVTVSWNSGALTSGVHTFPAVLQSSGLYSLSSVVTVPSSSLGTQTYICNVNHKPSNTKVDEKVEPKSCDKTHTCPPCPAPEAAGGPSVFLFPPKPKDTLMISRTPEVTCVVVDVSHEDPEVKFNWYVDGVEVHNAKTKPREEQYNSTYRVVSVLTVLHQDWLNGKEYKCKVSNKALGAPIEKTISKAKGQPREPQVCTLPPSRDELTKNQVSLSCAVKGFYPSDIAVEWESNGQPENNYKTTPPVLDSDGSFFLVSKLTVDKSRWQQGNVFSCSVMHEALHNHYTQKSLSLSP light 1: DIQMTQSPSSLSASVGDRVTITCRASGNIYNYLAWYQQKPGKVPKLLIYDAKTLADGVPSRFSGSGSGTDFTLTISSLQPEDVATYYCQHFWSLPFTFGQGTKLEIKRTVAAPSVFIFPPSDRKLKSGTASVVCLLNNFYPREAKVQWKVDNALQSGNSQESVTEQDSKDSTYSLSSTLTLSKADYEKHKVYACEVTHQGLSSPVTKSFNRGEC light 2: EVQLLESGGGLVQPGGSLRLSCAASGFTFSSYAMNWVRQAPGKGLEWVSRIRSKYNNYATYYADSVKGRFTISRDDSKNTLYLQMNSLRAEDTAVYYCVRASNFPASYVSYFAYWGQGTLVTVSSASVAAPSVFIFPPSDEQLKSGTASVVCLLNNFYPREAKVQWKVDNALQSGNSQESVTEQDSKDSTYSLSSTLTLSKADYEKHKVYACEVTHQGLSSPVTKSFNRGEC |  |  |  |  |  |  |  |  | Kd [5]: 0.41 nM; koff [5]: 0.00153 s⁻¹; kon [5]: 3.75e+06 M⁻¹ s⁻¹; t1/2 [5]: 7.55 min; Kd [6]: 0.21 nM; koff [6]: 0.00104 s⁻¹; kon [6]: 4.89e+06 M⁻¹ s⁻¹; t1/2 [6]: 11.1 min; binding activity [%] after 2 weeks at pH 6.0/40°C [7]: 97%; binding activity [%] after 2 weeks at pH 7.4/37°C [7]: 95% |
| CEACAM5-TCB with CD3orig as CD3 binder (bispecific antibody, human IgG1, kappa, L234A L235A, also called CD3orig in CEACAM5-TCB format) heavy 1: not shown heavy 2: QVQLVQSGAEVKKPGSSVKVSCKASGFNIKDTYMHWVRQAPGQGLEWMGRIDPANGNSKYVPKFQGRVTITADTSTSTAYMELSSLRSEDTAVYYCAPFGYYVSDYAMAYWGQGTLVTVSSASTKGPSVFPLAPSSKSTSGGTAALGCLVEDYFPEPVTVSWNSGALTSGVHTFPAVLQSSGLYSLSSVVTVPSSSLGTQTYICNVNHKPSNTKVDEKVEPKSCDKTHTCPPCPAPEAAGGPSVFLFPPKPKDTLMISRTPEVTCVVVDVSHEDPEVKFNWYVDGVEVHNAKTKPREEQYNSTYRVVSVLTVLHQDWLNGKEYKCKVSNKALGAPIEKTISKAKGQPREPQVCTLPPSRDELTKNQVSLSCAVKGFYPSDIAVEWESNGQPENNYKTTPPVLDSDGSFFLVSKLTVDKSRWQQGNVFSCSVMHEALHNHYTQKSLSLSP light 1: EIVLTQSPATLSLSPGERATLSCRAGESVDIFGVGFLHWYQQKPGQAPRLLIYRASNRATGIPARFSGSGSGTDFTLTISSLEPEDFAVYYCQQTNEDPYTFGQGTKLEIKRTVAAPSVFIFPPSDRKLKSGTASVVCLLNNFYPREAKVQWKVDNALQSGNSQESVTEQDSKDSTYSLSSTLTLSKADYEKHKVYACEVTHQGLSSPVTKSFNRGEC light 2: EVQLLESGGGLVQPGGSLRLSCAASGFTFSTYAMNWVRQAPGKGLEWVSRIRSKYNNYATYYADSVKGRFTISRDDSKNTLYLQMNSLRAEDTAVYYCVRHGNFGNSYVSWFAYWGQGTLVTVSSASVAAPSVFIFPPSDEQLKSGTASVVCLLNNFYPREAKVQWKVDNALQSGNSQESVTEQDSKDSTYSLSSTLTLSKADYEKHKVYACEVTHQGLSSPVTKSFNRGEC | 95% | 66% | 244 pM | 115 pM | 3.37 nM | 0.00281 s⁻¹ | 851000 M⁻¹ s⁻¹ | 4.1 min |  |

— patent US20260125469A1 (Hoffmann-La Roche, published 2026)
